The values below come from patent US20100135987A1.

The target of test [1] is Protein A (ligand of MabSelect resin, GE Healthcare) (UniProt P38507). The experiment in a line: dynamic binding capacity of MabSelect column at 5% breakthrough, 300 cm/hr to 35 mg Ab/mL resin, then 150 cm/hr.
Test [2] shares this target. Nature of the test: dynamic binding capacity of MabSelect column at 5% breakthrough, dual-flow rate load, average of Exp. 3 and 4.
Test [3] shares this target. The experiment in a line: dynamic binding capacity of MabSelect column at 5% breakthrough, load at 300 cm/hr.
The target is the same in test [4]. The experiment in a line: dynamic binding capacity of MabSelect column at 5% breakthrough, load at 300 cm/hr, average of Exp. 1 and 2.

Several values for one entry are separate records, joined by “and”; a condition that tells them apart may be missing. Equal values may be shown once.

On to anti-IL-12 antibody (ABT-874), for which the DBC at 5% BT (mg Ab/mL resin) in test [1] was 51.6 and 51.7; in test [2], 51.7; in test [3], 43.7 and 44.9; in test [4], 44.3.
